Experimental data published in US20220348610A1 (published 2022).
Values belong to the binder of their own block, whether it stands above or below them. Numbered stars: 1 amine (or outer) side, 2 acyl side, 3 side chain; on linkers, the order of the positions; unused ones are H or OH. Bridge positions count the residues as written; N and C are the ends. Square brackets hold non-standard residues; d marks the D form. Tyr(OMe) = O-methyl-Tyr (4-methoxyphenylalanine), COc1ccc(C[C@H](N[*:1])C(=O)[*:2])cc1; Trp(5-F) = N[C@@H](Cc1c[nH]c2ccc(F)cc12)C(=O)O; mXylylene = c1cc(C[*:1])cc(C[*:2])c1; AlexaFluor 647 = AlexaFluor 647 dye; αMeP = C[C@@]1(C(=O)O)CCCN1; Mpa = O=C(O)CCS

Tests used:
biotinylated PCSK9 [1] = molecular target: T1, biotinylated PCSK9 (UniProt Q8NBP7 31-692, limits assumed, biotinylated (site not stated)); assay: Alexa FRET Standard assay
Experimental: A solution containing 1 nM biotinylated PCSK9+2.5 nM Lance Streptavidin Europium (Strep-Eu) was made in 50 mM HEPES pH 7.4, 0.15 M NaCl, 5 mM CaCl₂), 0.01% BSA, and 0.01% Surfactant P20. A separate solution containing 40 nM of the AlexaFluor tagged cyclic peptide was made in the same buffer system. An Echo was used to transfer 0.750 ul of compound to an assay plate followed by the addition of 15 ul of PCSK9+Stept-Eu and 15 ul of AF peptide. The final assay volume was 30.750 ul containing 0.5 nM PCSK9, 1.25 nM Strep-Eu, and 20 nM AF cyclic peptide. The reaction was incubated at room temperature for at least two hours prior to fluorescence measurements using an Envision Multilabel Reader. IC₅₀ values were determined by fitting data to a sigmoidal dose-response curve using nonlinear regression. Kᵢ was then calculated from the IC₅₀ and the KD of AF cyclic peptide. Counts (B-counts) of the europium-labeled PCSK9 were followed to observe if compounds were […]. A fall off of the B-counts likely indicated a false positive of inhibition. Data from this procedure was reported as “A=‘numerical value’ (nanomolar)”

biotinylated PCSK9 [2] = molecular target: T1, biotinylated PCSK9; assay: Alexa FRET Plus assay
Experimental: A solution containing 1 nM biotinylated PCSK9+2.5 nM Lance Streptavidin Europium (Strep-Eu) was made in 50 mM HEPES pH 7.4, 0.15 M NaCl, 5 mM CaCl₂), 0.01% BSA, and 0.01% Surfactant P20. A separate solution containing 1920 nM of the AlexaFluor tagged cyclic peptide was made in the same buffer system. An Echo was used to transfer 0.075 ul of compound plus 0.675 ul of DMSO to each well of an assay plate followed by the addition of 15 ul of PCSK9+Stept-Eu and 15 ul of AF peptide. The final assay volume was 30.750 ul containing 0.5 nM PCSK9, 1.25 nM Strep-Eu, and 960 nM AF cyclic peptide. The reaction was incubated at room temperature for at least two hours prior to fluorescence measurements using an Envision Multilabel Reader. IC₅₀ values were determined by fitting data to a sigmoidal dose-response curve using nonlinear regression. Kᵢ was then calculated from the IC₅₀ and the KD of AF cyclic peptide. Counts (B-counts) of the europium-labeled PCSK9 were followed to observe if compounds were adversely affecting PCSK9. A fall off of the B-counts likely indicated a false positive of inhibition. Data from this procedure was reported as “P=‘numerical value’ (nanomolar)”

T1 sequence (Q8NBP7 31-692 limits assumed): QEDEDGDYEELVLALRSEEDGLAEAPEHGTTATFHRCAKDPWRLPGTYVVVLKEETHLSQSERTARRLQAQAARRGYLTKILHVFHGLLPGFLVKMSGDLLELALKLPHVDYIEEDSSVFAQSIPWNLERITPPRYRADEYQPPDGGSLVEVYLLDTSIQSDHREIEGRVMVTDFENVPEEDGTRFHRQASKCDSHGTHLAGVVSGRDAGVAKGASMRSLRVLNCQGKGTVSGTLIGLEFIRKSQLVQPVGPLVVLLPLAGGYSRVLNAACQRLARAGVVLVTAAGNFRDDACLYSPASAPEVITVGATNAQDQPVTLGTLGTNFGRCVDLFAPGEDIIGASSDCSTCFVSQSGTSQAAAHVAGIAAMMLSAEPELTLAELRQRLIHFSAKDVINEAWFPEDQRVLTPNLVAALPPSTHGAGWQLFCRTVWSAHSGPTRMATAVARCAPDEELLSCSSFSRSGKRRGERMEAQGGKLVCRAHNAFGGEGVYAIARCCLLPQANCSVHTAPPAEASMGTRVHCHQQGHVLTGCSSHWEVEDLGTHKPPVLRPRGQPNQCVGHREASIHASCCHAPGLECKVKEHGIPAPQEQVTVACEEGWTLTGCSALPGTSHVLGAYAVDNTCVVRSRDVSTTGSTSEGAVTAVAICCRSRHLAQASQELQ

- Kd (biotinylated PCSK9 [1]): 0.083 µM
B1: Reagent A (peptide)
peptide: [Mpa]K(AlexaFluor 647)G[Trp(5-F)][Trp(5-F)]DHY[αMeP]C-NH2
modifications: linker N-10 via mXylylene; not fully specified
notes: also called AlexaFluor647 (AF) tagged cyclic peptide; AF cyclic peptide

- Kd (biotinylated PCSK9 [2]): 0.035 µM
B2: Reagent B (peptide)
peptide: [Mpa]K(AlexaFluor 647)[dA][Trp(5-F)][Trp(5-F)]DH[Tyr(OMe)][αMeP]C-NH2
modifications: linker N-10 via mXylylene; not fully specified
notes: as for B1
